Data: the supplement of paper PMC12783771
± gives the standard deviation of the averaged measurements.

B1: library; numbered along this chain (parent)
chain: MNIQIGELAKRTACPVVTIRFYEQEGLLPPPGRSRGNFRLYGEEHVERLQFIRHCRSLDMPLSDVRTLLSYRKRPDQDCGEVNMLLDEHIRQVESRIGALLELKHHLVELREACSGARPAQSCGILQGLSDCVCDTRGTTAHPSD

Key:
[1] = variants of: B1; test: sfGFP reporter fluorescence (15 h) (µM FITC); higher = higher leak; details: library round: Round 0; ligand: none
Method in brief: (§1)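 PCR-made linear PbrR templates (Echo-normalized to 5 nM) were expressed in BL21 Star (DE3) extract (PANOx-SP) with pPbrR-sfGFP reporter plasmid and 30 μg/mL GamS. Reactions were 1 μL, Echo-assembled, with 1 µM lead chloride, 30 µM zinc acetate or no metal, incubated 15 hr at 30 °C. Endpoint sfGFP fluorescence (485/528 nm, Synergy Neo2) was converted to µM FITC via standard curves in 50 mM sodium borate pH 8.5. Up to three biological replicates.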

[2] = variants of: B1; test: sfGFP reporter fluorescence (15 h) (µM FITC); higher = stronger transcriptional activation; details: library round: Round 0
Method in brief: as §1

| Variant | sfGFP reporter fluorescence [1] | sfGFP reporter fluorescence ([2]; ligand: 1 µM Pb) | sfGFP reporter fluorescence ([2]; ligand: 30 µM Zn) |
| --- | --- | --- | --- |
| V93A | 0.0585 ± 0.0013 | 0.0579 ± 0.0031 | 0.128 ± 0.0062 |
| R74A | 0.0596 ± 0.0013 | 0.0669 ± 0.0065 | 0.369 ± 0.079 |
| D76A | 0.06157 ± 0.00052 | 0.0614 ± 0.0034 | 0.202 ± 0.013 |
| R91A | 0.0618 ± 0.00078 | 0.0724 ± 0.0029 | 0.6942 ± 0.0015 |
| R72A | 0.06175 ± 0.00026 | 0.0687 ± 0.008 | 0.3731 ± 0.0026 |
| C79R | 0.06011 ± 0.00052 | 0.0629 ± 0.0018 | 0.059 ± 0.001 |
| C79L | 0.0555 ± 0.0023 | 0.0553 ± 0.0021 | 0.05498 ± 0.00052 |
| C79N | 0.05919 ± 0.00026 | 0.0566 ± 0.0013 | 0.0557 |
| C79S | 0.0592 ± 0.0018 | 0.059 ± 0.001 | 0.055 |
| C79E | 0.0588 ± 0.00078 | 0.0596 ± 0.00078 | 0.0548 ± 0.00078 |
| C79Q | 0.05901 ± 0.00052 | 0.05937 ± 0.00052 | 0.0566 ± 0.00078 |
| C79F | 0.055 ± 0.0026 | 0.0574 ± 0.0013 | 0.0546 ± 0.0015 |
| C79K | 0.06011 ± 0.00052 | 0.0614 ± 0.00078 | 0.0548 ± 0.00078 |
| C79M | 0.05974 ± 0.00052 | 0.06121 ± 0.00052 | 0.0592 ± 0.0013 |
| C79D | 0.05882 ± 0.00026 | 0.059 ± 0.0021 | 0.0564 ± 0.001 |
| C79V | 0.0572 ± 0.0015 | 0.0586 | 0.05552 ± 0.00026 |
| C79T | 0.0575 ± 0.0031 | 0.0592 ± 0.0018 | 0.0555 ± 0.0018 |
| C79I | 0.0557 ± 0.0015 | 0.05351 ± 0.00052 | 0.05387 ± 0.00052 |
| C79A | 0.05827 ± 0.00052 | 0.055 ± 0.0021 | 0.0585 ± 0.00078 |
| C79P | 0.057 ± 0.00078 | 0.05772 ± 0.00026 | 0.05351 ± 0.00052 |
| C79Y | 0.0597 ± 0.0031 | 0.0585 ± 0.00078 | 0.0564 ± 0.001 |
| C79G | 0.0553 ± 0.0021 | 0.0552 ± 0.0013 | 0.0522 ± 0.0013 |
